Data set [1] concerns ZFN 17747 (IgM) (synthetic). Briefly: cell_activity. As to conditions: pair 17747/17749, CMV promoter, C6 chromosomes cleaved (about 1% with CAG); 5 of 43 rats modified.
Data set [2] concerns ZFN 17749 (IgM) (synthetic). Put plainly: cell_activity. As to conditions: pair 17747/17749, CMV promoter, C6 chromosomes cleaved (about 1% with CAG); 5 of 43 rats modified.

Activity data for two sequences are collected here from US20160068865.

On to “AATTTGGTGGCCATGGGC (double strand) [IgM target of 17747]”, for which the activity in data set [1] was 3%.
In data set [2], “AGACAGGGGGCTCTC (double strand) [IgM target of 17749]” returned an activity of 3%.
